Test results: patent US20140186344A1 (TRUSTEES OF BOSTON UNIVERSITY, published 2014)
Positions count from the first letter of the chain named. No end group written: not given here. *: point of attachment. 125I = [125I]*

Key:
[1] = target: T1, Dahl R Dear S44P/M74T variant (rat Dual Endothelin-1/Angiotensin II Receptor) (rat (Dahl R/JRHsd), UniProt D3ZGZ6 1-127); test: saturation radioligand binding, Cos1 membranes; KL, low affinity binding site; the column head says nM, and the unit is doubtful
T1 construct: It was assayed as membranes of transfected Cos1 cells and as kidney membranes on blots; also called Dahl R receptor; Cos1-R
T1 chain: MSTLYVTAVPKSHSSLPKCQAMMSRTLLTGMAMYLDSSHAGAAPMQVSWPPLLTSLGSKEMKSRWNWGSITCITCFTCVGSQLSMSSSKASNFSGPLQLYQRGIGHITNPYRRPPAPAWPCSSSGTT
Description: (§1) Binding of [¹²⁵I]Tyr⁴-angiotensin II and [¹²⁵I]Tyr¹³-endothelin-1 to COS-1 membranes was performed by a rapid filtration method (32, 50). Briefly, [¹²⁵I]Tyr⁴-angiotensin II (0.25˜6.5 nM) or [¹²⁵I]Tyr¹³-endothelin-1 (0.045˜1.46 nM) was incubated with membranes (100 μg) for 20 min at 37° C. in 100 μl buffer A (5 mM MgCl₂, 0.2 mM EDTA, 10 mg/ml BSA, 10 mM Hepes, pH7.4). Binding reactions were terminated by the addition of 1 ml ice-cold buffer A and immediately filtered through a Whatman GF/C filter (presoaked overnight at 4° C. in 10 mg/ml BSA) and subsequently washed with 15 ml ice-cold buffer A. Specific binding was determined as the difference between the total radioactivity bound to membranes and the radioactivity bound to blanks containing 1 μM AngII or 1 μM ET-1. The dissociation constant (Kd) and maximum ligand-binding sites (Bₘₐₓ) were determined using Hill plot analysis (55). Hill coefficient values (h) were calculated from the relationship ln [B/(Bₘₐₓ−B)]=h ln [free Radioligand]−ln Kd. […] The data were best fit by two affinity states determined by Scatchard plot analysis; KH and KL designate the Kd for high- and low-affinity states of the receptor, respectively (44). Most results are expressed as the mean±SE (standard error) from three to five independent experiments.

[2] = target: T2, Dahl S Dear S44/M74 variant (rat Dual Endothelin-1/Angiotensin II Receptor) (rat (Dahl S/JRHsd), UniProt D3ZGZ6 1-127); test: as above
T2 construct: It was assayed as membranes of transiently transfected Cos1 cells, and as rat kidney membranes on blots; also called Dahl S receptor; Cos1-S
T2 chain: T1 chain with P44S, T74M
Description: as §1

mouse Dear (Dual …) = target: T3, mouse Dear (Dual Endothelin-1/Angiotensin II Receptor) (mouse, UniProt Q2QKR2 1-127); test: 125I-ET-1 binding to membranes of Cos-1 cells expressing mouse Dear
T3 construct: Endogenous protein in mouse kidney membranes and embryos was used for the antibody work; also called mouse receptor polypeptide; mouse Dear polypeptide
T3 sequence: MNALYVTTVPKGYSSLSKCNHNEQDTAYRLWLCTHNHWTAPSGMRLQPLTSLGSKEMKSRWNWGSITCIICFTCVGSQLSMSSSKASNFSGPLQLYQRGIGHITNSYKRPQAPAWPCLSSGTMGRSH

[3] = target: T2, Dahl S Dear S44/M74 variant (rat Dual …); test: saturation radioligand binding, Cos1 membranes; comparison of KH
Description: as §1

[4] = target: T1, Dahl R Dear S44P/M74T variant (rat Dual …); test: saturation radioligand binding, Cos1 membranes; KH, high affinity binding site; the column head says nM but paragraph 132 gives this value in pM
Description: as §1

[5] = target: T2, Dahl S Dear S44/M74 variant (rat Dual …); test: as above
Description: as §1

Kd [1]: 0.836 nM | Kd [2]: 0.45 nM | binding result (mouse Dear (Dual …)): binds | fold increased affinity compared to the Dahl R Dear S44P/M74T variant [3]: 3 fold | Kd [4]: 0.012 nM | Kd [5]: 0.00442 nM
B1: [125I]Tyr13-endothelin-1 (peptide, UniProt P05305 53-73, looked up)
peptide: CSCSSLMDKECVY(125I)FCHLDIIW
modifications: ends and bridges not checked
notes: mature; Radiolabelled ligand; also called ET-1
